Experimental data published in PMC4944999 (PLoS ONE, 2016).

Target: PeB^GF-Lys, double substituted variant ([change], [change]) of PeB-Lys (mouse)
Test: SPR

Question: For “hemagglutinin (HA) of influenza A/NewYork/55/2004 H3N2, in monovalent split vaccine (natural protein)”, which fold amount of hemagglutinin bound compared to PeB is on record?
Answer: 4 fold
